Reference: article PMC2761005, “Three-Dimensional Structure of N-Terminal Domain of DnaB Helicase and Helicase-Primase Interactions in Helicobacter pylori” (PLoS ONE, 2009)

Columns and labels:
[1] = biological target: C-terminal domain (CTD) of H. pylori DnaG primase (H. pylori) (UniProt P56064); experiment: SPR; Biacore 2000, 25°C; 750 RU of CTD of HpDnaG amine-coupled on a CM4 chip; helicase samples (10 µM) injected at 20 µl/min in 10 mM Hepes pH 7.4, 150 mM NaCl, 3 mM EDTA, 0.005% P20
[2] = biological target: the molecule itself; experiment: SEC; Hi Load superdex-75 16/60 column, 20 mM Tris.Cl pH 7.5, 100 mM NaCl, 1 mM EDTA, 5 mM βME; mass deduced from a plot of gel filtration standards

Chain of C-terminal domain (CTD) of H. pylori DnaG primase (H. pylori) (P56064 whole entry, the tested form may be a part): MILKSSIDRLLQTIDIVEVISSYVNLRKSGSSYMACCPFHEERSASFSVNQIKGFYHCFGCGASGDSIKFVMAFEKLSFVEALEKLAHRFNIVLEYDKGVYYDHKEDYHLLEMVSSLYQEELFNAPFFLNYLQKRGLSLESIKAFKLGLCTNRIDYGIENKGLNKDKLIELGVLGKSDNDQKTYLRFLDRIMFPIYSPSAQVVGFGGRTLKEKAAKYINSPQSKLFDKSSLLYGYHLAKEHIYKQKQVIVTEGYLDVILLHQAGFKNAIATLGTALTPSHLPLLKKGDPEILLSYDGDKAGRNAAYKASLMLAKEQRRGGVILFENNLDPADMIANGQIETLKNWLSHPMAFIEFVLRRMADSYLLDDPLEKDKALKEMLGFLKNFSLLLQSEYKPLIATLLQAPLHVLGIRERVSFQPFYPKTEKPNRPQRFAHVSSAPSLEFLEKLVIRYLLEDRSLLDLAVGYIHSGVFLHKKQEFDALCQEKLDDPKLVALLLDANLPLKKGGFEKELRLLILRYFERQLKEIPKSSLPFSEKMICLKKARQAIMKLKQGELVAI

B1: H. pylori DnaB helicase, full length (enzyme)
chain: MDHLKHLQQLQNIERIVLSGIVLANHKIEEVHSVLEPSDFYYPPNGLFFEIALKLHEEDCPIDENFIRQKMPKDKQIKEEDLVAIFAASPIDNIEAYVEEIKNASIKRKLFGLANTIREQALESAQKSSDILGAVEREVYALLNGSTIEGFRNIKEVLESAMDLITENQRKGSLEVTGIPTGFVQLDNYTSGFNKGSLVIIGARPSMGKTSLMMNMVLSALNDDRGVAVFSLEMSAEQLALRALSDLTSINMHDLESGRLDDDQWENLAKCFDHLSQKKLFFYDKSYVRIEQIRLQLRKLKSQHKELGIAFIDYLQLMSGSKATKERHEQIAEISRELKTLARELEIPIIALVQLNRSLENRDDKRPILSDIKDSGGIEQDADIVLFLYRGYIYQMRAEDNKIDKLKKEGKIEEAQELYLKVNEERRIHKQNGSIEEAEIIVAKNRNGATGTVYTRFNAPFTRYEDMPIDSHLEEGQETKVDYDIVTT
- Kd [1]: 2250 nM

B2: N-terminal domain with longer linker (NTDL) of H. pylori DnaB helicase (residues 1-144) (domain or fragment)
chain: MDHLKHLQQLQNIERIVLSGIVLANHKIEEVHSVLEPSDFYYPPNGLFFEIALKLHEEDCPIDENFIRQKMPKDKQIKEEDLVAIFAASPIDNIEAYVEEIKNASIKRKLFGLANTIREQALESAQKSSDILGAVEREVYALLN
- Kd [1]: 110 nM

B3: N-terminal domain (NTD) of H. pylori DnaB helicase (residues 1-121) (domain or fragment, UniProt O25916 1-121, looked up)
chain: MDHLKHLQQLQNIERIVLSGIVLANHKIEEVHSVLEPSDFYYPPNGLFFEIALKLHEEDCPIDENFIRQKMPKDKQIKEEDLVAIFAASPIDNIEAYVEEIKNASIKRKLFGLANTIREQA
notes: Cloned NcoI/XhoI into pET 28a; also called NTD of HpDnaB; source: E. coli BL21 (DE3), purified (Ni-NTA, Superdex-75 gel filtration); not shown: His6, C-terminal, kept
- stoichiometry N [2]: 2
